According to PMC5748987 (The Journal of Cell Biology, 2018):
Values belong to the binder of their own block, whether it stands above or below them.

B3: xAurA (cleaved from mCherry-xAurA) (enzyme)
chain: MERAVKENHKPSNVKIFHPMTEGAKRIPVNQPQSTQFRPPGTAVSAQRILGPSNVPQRVLAQAQKPILSSQKPTTQIPLRPATQGHQSSKPQGPNENRNPQQTSHSSTPNVEKKGSTDQGKTSAVPKEEGKKKQWCLEDFEIGRPLGKGKFGNVYLARERESKFILALKVLFKSQLEKAGVEHQLRREVEIQSHLRHPNILRLYGYFHDASRVYLILDYAPGGELFRELQKCTRFDDQRSAMYIKQLAEALLYCHSKKVIHRDIKPENLLLGSNGELKIADFGWSVHAPSSRRTTLCGTLDYLPPEMIEGRMHDETVDLWSLGVLCYEFLVGKPPFETDTHQETYRRISKVEFQYPPYVSEEARDLVSKLLKHNPNHRLPLKGVLEHPWIIKNSQLKKKDEPLPGAQ

Assays:
[1] = target: T1, YFP-xBuGZ (full length) (Xenopus laevis, UniProt Q7ZXV8 1-452); assay: pull-down
[2] = target: T1, YFP-xBuGZ (full length); assay: co-sedimentation
[3] = target: YFP-xBuGZΔN7 (Xenopus laevis, UniProt Q7ZXV8 8-452); assay: pull-down
[4] = target: B3; assay: pull-down

T1 sequence (Q7ZXV8 whole entry): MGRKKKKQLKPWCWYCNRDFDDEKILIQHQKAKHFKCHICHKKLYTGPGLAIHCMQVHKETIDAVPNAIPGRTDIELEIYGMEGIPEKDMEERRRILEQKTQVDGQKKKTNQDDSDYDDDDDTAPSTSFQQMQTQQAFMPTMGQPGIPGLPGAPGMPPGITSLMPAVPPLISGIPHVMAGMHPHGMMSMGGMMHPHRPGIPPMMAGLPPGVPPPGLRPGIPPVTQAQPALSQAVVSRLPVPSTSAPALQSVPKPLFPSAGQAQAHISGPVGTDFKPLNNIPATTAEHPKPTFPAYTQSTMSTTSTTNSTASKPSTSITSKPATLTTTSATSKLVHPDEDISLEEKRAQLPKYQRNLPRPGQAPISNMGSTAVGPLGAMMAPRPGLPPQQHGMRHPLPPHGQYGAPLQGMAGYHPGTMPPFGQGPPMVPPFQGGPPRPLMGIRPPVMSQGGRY
Chain of YFP-xBuGZΔN7 (Q7ZXV8 8-452, stated change not applied): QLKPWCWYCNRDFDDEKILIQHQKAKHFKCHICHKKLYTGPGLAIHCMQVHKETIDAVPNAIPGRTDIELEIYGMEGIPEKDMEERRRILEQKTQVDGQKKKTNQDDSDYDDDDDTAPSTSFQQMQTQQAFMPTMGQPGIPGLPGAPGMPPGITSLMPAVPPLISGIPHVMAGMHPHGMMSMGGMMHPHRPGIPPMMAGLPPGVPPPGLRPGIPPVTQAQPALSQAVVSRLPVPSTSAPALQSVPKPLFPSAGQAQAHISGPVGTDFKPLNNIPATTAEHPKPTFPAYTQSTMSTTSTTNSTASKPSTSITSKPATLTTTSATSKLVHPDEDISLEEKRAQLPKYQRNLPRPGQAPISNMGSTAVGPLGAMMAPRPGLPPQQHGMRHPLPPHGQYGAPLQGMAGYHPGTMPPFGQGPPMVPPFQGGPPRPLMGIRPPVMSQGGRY

binding result [1]: binds
B1: GST-xAurA(127–407) (domain or fragment)
chain: KEEGKKKQWCLEDFEIGRPLGKGKFGNVYLARERESKFILALKVLFKSQLEKAGVEHQLRREVEIQSHLRHPNILRLYGYFHDASRVYLILDYAPGGELFRELQKCTRFDDQRSAMYIKQLAEALLYCHSKKVIHRDIKPENLLLGSNGELKIADFGWSVHAPSSRRTTLCGTLDYLPPEMIEGRMHDETVDLWSLGVLCYEFLVGKPPFETDTHQETYRRISKVEFQYPPYVSEEARDLVSKLLKHNPNHRLPLKGVLEHPWIIKNSQLKKKDEPLPGAQ

binding result [1]: binds
B2: GST-xAurA (full length, amino acids 1–407) (enzyme)
chain: MERAVKENHKPSNVKIFHPMTEGAKRIPVNQPQSTQFRPPGTAVSAQRILGPSNVPQRVLAQAQKPILSSQKPTTQIPLRPATQGHQSSKPQGPNENRNPQQTSHSSTPNVEKKGSTDQGKTSAVPKEEGKKKQWCLEDFEIGRPLGKGKFGNVYLARERESKFILALKVLFKSQLEKAGVEHQLRREVEIQSHLRHPNILRLYGYFHDASRVYLILDYAPGGELFRELQKCTRFDDQRSAMYIKQLAEALLYCHSKKVIHRDIKPENLLLGSNGELKIADFGWSVHAPSSRRTTLCGTLDYLPPEMIEGRMHDETVDLWSLGVLCYEFLVGKPPFETDTHQETYRRISKVEFQYPPYVSEEARDLVSKLLKHNPNHRLPLKGVLEHPWIIKNSQLKKKDEPLPGAQ

Binder: B3
binding result [2]: binds | binding result [3]: binds

binding result [4]: binds
B4: GST-xBuGZ(8–58) (domain or fragment)
chain: not shown
